The data set can be described thus: self-splicing fitness, log relative to wild type (ln ratio); higher = more splicing; Tetrahymena group I intron in knt gene, E. coli kanamycin selection, DiMSum; sequences stand for … in CUCUCU…GGAGGGAAAAGUUAUCAGGCAUGCACCUGGUAGCUAGUCUUUAAACCAAUAGAUUGCAUCGGUUUAAAAGGCAAGACCGUCAAAUUGCGGGAAAGGGGUCAACAGCCGUUCAGUACCAAGUCUCAGGGGAAACUUUGAGAUGGCCUUGCAAAGGGUAUGGUAAUAAGCUGACGGACAUGGUCCUAACCACGCAGCCAAGUCCUAAGUCAACAGAUCUUCUGUUGAUAUGGAUGCAGUUCACAGACUAAAUGUCGGUCGGGGAAGAUGUAUUCUUCUCAUAAGAUAUAGUCGGACCUCUCCUUAAUGGGAGCUAGCGGAUGAAGUGAUGCAACACUGGAGCCGCUGGGAACUAAUUUGUAUGCGAAAGUAUAUUGAUUAGUUUUGGAGUACUCGUGGUCG
In a few lines:
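DiMSum derived fitness as the error-weighted combination of fold changes across replicates, kanamycin versus no kanamycin, normalised to wild type. E. coli BL21(DE3) held the library, which randomised all eight P1ex-region intron nucleotides within the knt kanamycin-resistance gene on pET-22b(+). Six replicate transformations grew overnight at 37°C or 30°C on LB agar with or without 25 μg/mL kanamycin, also containing 100 μg/mL carbenicillin, 50 μM IPTG and 0.2% rhamnose, and pooled colonies were amplicon-sequenced on an Illumina HiSeq 2500.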

± gives the uncertainty stated by the source.

On to GUGUAGCAAUAUUACGCAUU, for which the “self-splicing fitness (ln)” value is -2.29 ± 0.3 (30 °C) and -1.97 ± 0.28 (37 °C). With UAUAAGCAAUAUUACGGUGA, the “self-splicing fitness (ln)” value is -1 ± 0.13 (30 °C) and -0.726 ± 0.13 (37 °C).

Consider GCGAAGCAAUAUUACGUGGU, for which the “self-splicing fitness (ln)” value by setting is: (30 °C) -3.09 ± 0.17; (37 °C) -2.92 ± 0.2. For the sequence UAUUAGCAAUAUUACGAGAA, under “37 °C”, the “self-splicing fitness (ln)” value was -2.92 ± 0.47. ACCCAGCAAUAUUACGUAGC: the “self-splicing fitness (ln)” value by setting is: (30 °C) -0.673 ± 0.044; (37 °C) -0.163 ± 0.064. Taken in the same sequence, the figures for CACCAGCAAUAUUACGUGGC were -3.65 ± 0.17 and -2.98 ± 0.21.

For UUCAAGCAAUAUUACGCGAU, the “self-splicing fitness (ln)” value (30 °C) was -2.11 ± 0.16 and the “self-splicing fitness (ln)” value (37 °C) is -3 ± 0.34. The matching figures for GAUCAGCAAUAUUACGUUUA: -0.394 ± 0.084 and 0.0451 ± 0.095. GGCGAGCAAUAUUACGGUAA: the “self-splicing fitness (ln)” value is -2.66 ± 0.16 (30 °C) and -1.77 ± 0.2 (37 °C). The matching figures for ACCUAGCAAUAUUACGACCC: -0.886 ± 0.2 and -0.637 ± 0.31. The matching figures for UGCUAGCAAUAUUACGAGAU: -3.93 ± 0.31 and -2.41 ± 0.3. The matching figures for CUAGAGCAAUAUUACGUAAA: -3.81 ± 0.24 and -1.84 ± 0.25. Take AAUAAGCAAUAUUACGACAA: the “self-splicing fitness (ln)” value by setting is: (30 °C) -0.398 ± 0.13; (37 °C) -0.323 ± 0.12. Taken in the same sequence, the figures for UGACAGCAAUAUUACGUGAA were -1.94 ± 0.076 and -0.332 ± 0.094.

In the case of UCGUAGCAAUAUUACGAUAG, the “self-splicing fitness (ln)” value (37 °C) was -3.12 ± 0.38.

GAUUAGCAAUAUUACGUAUU: the “self-splicing fitness (ln)” value reads like this: (30 °C) -3 ± 0.12; (37 °C) -1.65 ± 0.1. As for UUAGAGCAAUAUUACGAACU, the “self-splicing fitness (ln)” value (37 °C) was -1.92 ± 0.43. UAACAGCAAUAUUACGCGAC: the “self-splicing fitness (ln)” value reads like this: (30 °C) -3.97 ± 0.29; (37 °C) -2.05 ± 0.16. The matching figures for CGUGAGCAAUAUUACGGAUG: -1.55 ± 0.075 and -0.983 ± 0.094. The matching figures for GCCUAGCAAUAUUACGAACU: -1.67 ± 0.23 and -0.772 ± 0.23.

Consider CAUCAGCAAUAUUACGCGUA, for which the “self-splicing fitness (ln)” value runs as follows: (30 °C) -0.586 ± 0.089; (37 °C) -0.774 ± 0.083.

Turning to ACCCAGCAAUAUUACGUAAA, the “self-splicing fitness (ln)” value was -0.691 ± 0.053 (30 °C) and -0.513 ± 0.075 (37 °C). Taken in the same sequence, the figures for CCCGAGCAAUAUUACGACAA were -2.78 ± 0.3 and -2.85 ± 0.41. The matching figures for ACGAAGCAAUAUUACGAUGU: -3.96 ± 0.19 and -2.74 ± 0.18. Turning to CGAGAGCAAUAUUACGGAAC, the “self-splicing fitness (ln)” value (30 °C) was -1.56 ± 0.44. In the case of GCCCAGCAAUAUUACGGUGG, the “self-splicing fitness (ln)” value was -3.21 ± 0.17 (30 °C) and -3.59 ± 0.25 (37 °C). Taken in the same sequence, the figures for AUCAAGCAAUAUUACGCCGG were -1.22 ± 0.19 and 0.522 ± 0.2. Taken in the same sequence, the figures for UUCAAGCAAUAUUACGAAGG were -4.7 ± 0.41 and -2.95 ± 0.26. The matching figures for UGAAAGCAAUAUUACGUGGC: -3.37 ± 0.17 and -2.73 ± 0.25. Take ACCUAGCAAUAUUACGGGGU: the “self-splicing fitness (ln)” value was -3.47 ± 0.16 (30 °C) and -2.61 ± 0.17 (37 °C). The matching figures for UCGGAGCAAUAUUACGAAUA: -2.32 ± 0.32 and -1.27 ± 0.32. The matching figures for UCGCAGCAAUAUUACGGCUC: -3.21 ± 0.17 and -2.96 ± 0.35. The matching figures for UCCGAGCAAUAUUACGGAUG: -4.09 ± 0.35 and -1.77 ± 0.2. As for UAGAAGCAAUAUUACGUCCU, the “self-splicing fitness (ln)” value by setting is: (30 °C) -0.903 ± 0.12; (37 °C) -0.0829 ± 0.17. With UUUGAGCAAUAUUACGGUGC, the “self-splicing fitness (ln)” value is -2.74 ± 0.47 (30 °C) and -2.2 ± 0.33 (37 °C).

Consider AUCUAGCAAUAUUACGGGCA, for which the “self-splicing fitness (ln)” value (30 °C) was -1.25 ± 0.15 and the “self-splicing fitness (ln)” value (37 °C) is -0.862 ± 0.18. The matching figures for AACUAGCAAUAUUACGAACA: -1.12 ± 0.07 and -0.611 ± 0.081. In the case of CCCCAGCAAUAUUACGAAAA, the “self-splicing fitness (ln)” value (30 °C) was -3.6 ± 0.26 and the “self-splicing fitness (ln)” value (37 °C) is -2.57 ± 0.26. The matching figures for CGCGAGCAAUAUUACGCCCU: -3.1 ± 0.29 and -2.5 ± 0.39.
